In paper PMC3834835, “Crystal structure of RuvC resolvase in complex with Holliday junction substrate” (Nucleic Acids Research, 2013):
Blank lines part the entries; values can stand above or below the molecule they belong to.

Experiments:
[1] = target: Tt-RuvC as crystallised in complex with a synthetic Holliday junction (T. thermophilus) (UniProt Q5SJC4); test: crystal structure; Tt-RuvC with synthetic Holliday junction (oligonucleotides J221 and J222), crystals from 0.3-0.5 M ammonium phosphate; molecular replacement, 3.75 Å; asymmetric unit holds a RuvC dimer and one HJ
Tt-RuvC E70Q = target: T1, Tt-RuvC E70Q (Thermus thermophilus, UniProt Q5SJC4 1-166, E70Q); test: X-ray crystallography (3.75 A); 0.3-0.5 M ammonium phosphate; Cross-linking: 100 mM NaCl, 10 mM HEPES pH 7.0, 0.5 mM DTT, 15% glycerol, 5 mM MgCl2 (+100 mM KCl for backbone thiols), protein:DNA 1:1, 37 C 2.5 h then 25 C overnight; details: protein: recombinant; tags: none (N-terminal His-tag removed with PreScission protease); chain copies: 2; Holliday junction of 2 strands, TTT loops on two arms
T1 sequence: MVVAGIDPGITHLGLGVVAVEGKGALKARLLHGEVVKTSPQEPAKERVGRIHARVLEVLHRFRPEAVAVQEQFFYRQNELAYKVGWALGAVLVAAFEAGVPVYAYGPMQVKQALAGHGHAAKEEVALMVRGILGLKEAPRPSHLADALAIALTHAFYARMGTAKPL

Tt-RuvC E70Q L80C = target: T2, Tt-RuvC E70Q L80C (Thermus thermophilus, UniProt Q5SJC4 1-166, E70Q;L80C); test: site-specific thiol cross-linking; 5 mM Mg2+; Cross-linking: 100 mM NaCl, 10 mM HEPES pH 7.0, 0.5 mM DTT, 15% glycerol, 5 mM MgCl2 (+100 mM KCl for backbone thiols), protein:DNA 1:1, 37 C 2.5 h then 25 C overnight; details: protein: recombinant, tags: N-terminal His-tag, chain copies: 2, Holliday junction of 2 strands, TTT loops
T2 sequence: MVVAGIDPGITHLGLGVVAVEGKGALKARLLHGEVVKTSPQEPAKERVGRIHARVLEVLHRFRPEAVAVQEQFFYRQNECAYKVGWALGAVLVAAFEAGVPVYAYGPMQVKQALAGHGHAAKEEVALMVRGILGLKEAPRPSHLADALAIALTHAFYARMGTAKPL

[2] = target: the molecule itself; test: crystal structure; apo Tt-RuvC, crystals from 0.1 M citric acid (pH 3.5) and 1.5 M NaCl; SAD, 1.35 Å; asymmetric unit holds a RuvC dimer
Tt-RuvC E70Q R76C = target: T3, Tt-RuvC E70Q R76C (Thermus thermophilus, UniProt Q5SJC4 1-166, E70Q;R76C); test: site-specific thiol cross-linking; 5 mM Mg2+; high efficiency; Cross-linking: 100 mM NaCl, 10 mM HEPES pH 7.0, 0.5 mM DTT, 15% glycerol, 5 mM MgCl2 (+100 mM KCl for backbone thiols), protein:DNA 1:1, 37 C 2.5 h then 25 C overnight; details: protein: recombinant; tags: N-terminal His-tag; chain copies: 2; Holliday junction of 2 strands, TTT loops, 2 bp homology core
T3 sequence: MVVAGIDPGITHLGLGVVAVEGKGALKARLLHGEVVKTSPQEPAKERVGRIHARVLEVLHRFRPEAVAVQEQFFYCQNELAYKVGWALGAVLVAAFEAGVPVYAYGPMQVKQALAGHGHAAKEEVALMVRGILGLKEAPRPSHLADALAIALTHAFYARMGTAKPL

Tt-RuvC E70Q Q77C = target: T4, Tt-RuvC E70Q Q77C (Thermus thermophilus, UniProt Q5SJC4 1-166, E70Q;Q77C); test: as above; details: protein: recombinant; tags: N-terminal His-tag; chain copies: 2; Holliday junction of 2 strands, TTT loops, 2 bp homology core
T4 sequence: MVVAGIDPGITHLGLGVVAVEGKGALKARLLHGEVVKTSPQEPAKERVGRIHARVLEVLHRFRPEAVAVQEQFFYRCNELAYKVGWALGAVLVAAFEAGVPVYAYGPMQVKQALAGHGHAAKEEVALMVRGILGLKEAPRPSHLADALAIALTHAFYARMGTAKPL

Tt-RuvC E70Q M108C = target: T5, Tt-RuvC E70Q M108C (Thermus thermophilus, UniProt Q5SJC4 1-166, E70Q;M108C); test: site-specific thiol cross-linking; 5 mM Mg2+, 100 mM KCl; Cross-linking: 100 mM NaCl, 10 mM HEPES pH 7.0, 0.5 mM DTT, 15% glycerol, 5 mM MgCl2 (+100 mM KCl for backbone thiols), protein:DNA 1:1, 37 C 2.5 h then 25 C overnight; details: protein: recombinant; tags: N-terminal His-tag; chain copies: 2; Holliday junction of 4 strands, immobile
T5 sequence: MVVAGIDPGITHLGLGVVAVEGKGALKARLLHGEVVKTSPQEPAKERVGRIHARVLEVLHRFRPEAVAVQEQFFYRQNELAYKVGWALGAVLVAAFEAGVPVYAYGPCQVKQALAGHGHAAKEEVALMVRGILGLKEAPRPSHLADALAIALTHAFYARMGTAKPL

Tt-RuvC E70Q T11C [3] = target: T6, Tt-RuvC E70Q T11C (Thermus thermophilus, UniProt Q5SJC4 1-166, E70Q;T11C); test: site-specific thiol cross-linking; 5 mM Mg2+, 100 mM KCl; most efficient; Cross-linking: 100 mM NaCl, 10 mM HEPES pH 7.0, 0.5 mM DTT, 15% glycerol, 5 mM MgCl2 (+100 mM KCl for backbone thiols), protein:DNA 1:1, 37 C 2.5 h then 25 C overnight; details: protein: recombinant; tags: N-terminal His-tag; chain copies: 2; Holliday junction of 4 strands, immobile
T6 sequence: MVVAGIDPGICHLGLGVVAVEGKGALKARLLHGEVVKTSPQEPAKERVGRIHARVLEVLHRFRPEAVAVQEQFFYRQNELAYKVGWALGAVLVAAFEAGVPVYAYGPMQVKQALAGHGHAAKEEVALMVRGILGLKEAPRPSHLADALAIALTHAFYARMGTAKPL

Tt-RuvC E70Q P40C [4] = target: T7, Tt-RuvC E70Q P40C (Thermus thermophilus, UniProt Q5SJC4 1-166, E70Q;P40C); test: site-specific thiol cross-linking; 5 mM Mg2+, 100 mM KCl; single modification; Cross-linking: 100 mM NaCl, 10 mM HEPES pH 7.0, 0.5 mM DTT, 15% glycerol, 5 mM MgCl2 (+100 mM KCl for backbone thiols), protein:DNA 1:1, 37 C 2.5 h then 25 C overnight; details: protein: recombinant; tags: N-terminal His-tag; chain copies: 2; Holliday junction of 4 strands
T7 sequence: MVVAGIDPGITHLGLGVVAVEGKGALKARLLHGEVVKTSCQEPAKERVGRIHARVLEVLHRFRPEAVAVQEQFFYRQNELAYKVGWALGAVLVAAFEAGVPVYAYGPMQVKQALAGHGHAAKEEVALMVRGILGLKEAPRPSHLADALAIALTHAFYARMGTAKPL

Tt-RuvC E70Q R140C = target: T8, Tt-RuvC E70Q R140C (Thermus thermophilus, UniProt Q5SJC4 1-166, E70Q;R140C); test: site-specific thiol cross-linking; 5 mM Mg2+, 100 mM KCl; Cross-linking: 100 mM NaCl, 10 mM HEPES pH 7.0, 0.5 mM DTT, 15% glycerol, 5 mM MgCl2 (+100 mM KCl for backbone thiols), protein:DNA 1:1, 37 C 2.5 h then 25 C overnight; details: protein: recombinant; tags: N-terminal His-tag; chain copies: 2; Holliday junction of 4 strands, immobile
T8 sequence: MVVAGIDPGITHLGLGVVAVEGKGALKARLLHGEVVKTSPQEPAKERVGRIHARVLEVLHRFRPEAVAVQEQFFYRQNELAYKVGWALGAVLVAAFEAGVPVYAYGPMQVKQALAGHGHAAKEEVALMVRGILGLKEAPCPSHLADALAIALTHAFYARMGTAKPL

Tt-RuvC E70Q P40C [5] = target: T7, Tt-RuvC E70Q P40C; test: site-specific thiol cross-linking; 5 mM Mg2+, 100 mM KCl; most efficient; Cross-linking: 100 mM NaCl, 10 mM HEPES pH 7.0, 0.5 mM DTT, 15% glycerol, 5 mM MgCl2 (+100 mM KCl for backbone thiols), protein:DNA 1:1, 37 C 2.5 h then 25 C overnight; details: protein: recombinant; tags: N-terminal His-tag; chain copies: 2; Holliday junction of 4 strands, immobile
Tt-RuvC E70Q T11C [6] = target: T6, Tt-RuvC E70Q T11C; test: site-specific thiol cross-linking; 5 mM Mg2+, 100 mM KCl; single modification; Cross-linking: 100 mM NaCl, 10 mM HEPES pH 7.0, 0.5 mM DTT, 15% glycerol, 5 mM MgCl2 (+100 mM KCl for backbone thiols), protein:DNA 1:1, 37 C 2.5 h then 25 C overnight; details: protein: recombinant; tags: N-terminal His-tag; chain copies: 2; Holliday junction of 4 strands

stoichiometry N [1]: 2
Molecule: Tt-RuvC as crystallised in complex with a synthetic Holliday junction (from UniProt Q5SJC4 1-166) (enzyme)

B1: HJ J221/J222 (structured_DNA)
DNA 1: CAATCGGCTTTGACCTTTGGTCAATCGGCAGAT
DNA 2: ATCTGCCGATTCTGGTTTCCAGAAAGCCGATTG
binding result (Tt-RuvC E70Q): binds

B2: HJ-26-h (structured_DNA)
DNA 1: CAATCGGCTATGACCTTTGGTCATTGGGCAGAT
DNA 2: ATCTGCCCATTCTGGTTTCCACAAAGCCGATTG
modifications: thiol on guanine 26 of one strand
binding result (Tt-RuvC E70Q L80C): binds

B3: HJ-8-h (structured_DNA)
DNA 1: CAATCGGGTATGACCTTTGGTCATTCGGCAGAT
DNA 2: ATCTGCCGATTCTGGTTTCTAGAAACCCGATTG
modifications: thiol on guanine 8 of one strand
binding result (Tt-RuvC E70Q L80C): binds

B4: RuvC protein from T. thermophilus (Tt-RuvC), unliganded (apo) crystal form (enzyme)
chain: MVVAGIDPGITHLGLGVVAVEGKGALKARLLHGEVVKTSPQEPAKERVGRIHARVLEVLHRFRPEAVAVEEQFFYRQNELAYKVGWALGAVLVAAFEAGVPVYAYGPMQVKQALAGHGHAAKEEVALMVRGILGLKEAPRPSHLADALAIALTHAFYARMGTAKPL
modifications: selenomethionine-substituted protein (SAD data)
notes: RuvC Holliday junction resolvase, Thermus thermophilus; No PDB id is printed for the apo structure; also called apo Tt-RuvC; RuvC resolvase; source: E. coli, purified (nickel column, tag cleavage, Mono-S column)
stoichiometry N [2]: 2

B5: HJ-25-h (structured_DNA)
DNA 1: CAATCGGCCAAGACCTTTGGTCTTGCGGCAGAT
DNA 2: ATCTGCCGCATATGGTTTCCAGATGGCCGATTG
modifications: thiol on guanine 25 of one strand
binding result (Tt-RuvC E70Q L80C; 2 bp homology core): binds

B6: HJ-25 (structured_DNA)
DNA 1: CAATCGGCCAAGACCTTTGGTCTTGCGGCAGAT
DNA 2: ATCTGCCGCATATGGTTTCCAGATGGCCGATTG
modifications: thiol (cysteamine) on position 2 of guanine 25 of both strands
binding result (Tt-RuvC E70Q R76C): binds
binding result (Tt-RuvC E70Q Q77C): binds

B7: HJ-28bb (structured_DNA)
DNA 1: GACGGCCTCGCAATCGACTATGACCGAGCACGCGAGATGT
DNA 2: ACATCTCGCGTGCTCGGTCATTCTGCAGATGCGGAGTGAA
DNA 3: TTCACTCCGCATCTGCAGATTCTGGCTGTGGCGTGTTTCT
DNA 4: AGAAACACGCCACAGCCAGAAAGTCGATTGCGAGGCCGTC
modifications: thiol tether on phosphate after nt 24 of strands 2 and 4
binding result (Tt-RuvC E70Q M108C): binds
binding result (Tt-RuvC E70Q T11C [3]): binds

B8: HJ-28bb-h (structured_DNA)
DNA 1: GACGGCCTCGCAATCGACTATGACCGAGCACGCGAGATGT
DNA 2: ACATCTCGCGTGCTCGGTCATTCTGCAGATGCGGAGTGAA
DNA 3: TTCACTCCGCATCTGCAGATTCTGGCTGTGGCGTGTTTCT
DNA 4: AGAAACACGCCACAGCCAGAAAGTCGATTGCGAGGCCGTC
modifications: thiol tether on phosphate after nt 24 of strand 4 only
binding result (Tt-RuvC E70Q P40C [4]): binds

B9: HJ-3bb (structured_DNA)
DNA 1: GACGGCCTCGCATTCGGCTATGACCGAGCACGCGAGATGT
DNA 2: ACATCTCGCGTGCTCGGTCATTCGGCAAGTGCGGAGTGAA
DNA 3: TTCACTCCGCACTTGCCGATTCTGGCTGTGGCGTGTTTCT
DNA 4: AGAAACACGCCACAGCCAGAAAGCCGAATGCGAGGCCGTC
modifications: thiol tether on phosphate after nt 13 of strands 1 and 3
binding result (Tt-RuvC E70Q R140C): binds

B10: HJ-29bb (structured_DNA)
DNA 1: GACGGCCTCGCAATCAGCTATGACCGAGCACGCGAGATGT
DNA 2: ACATCTCGCGTGCTCGGTCATTCGTCAGATGCGGAGTGAA
DNA 3: TTCACTCCGCATCTGACGATTCTGGCTGTGGCGTGTTTCT
DNA 4: AGAAACACGCCACAGCCAGAAAGCTGATTGCGAGGCCGTC
modifications: thiol tether on phosphate after nt 25 of strands 2 and 4
binding result (Tt-RuvC E70Q M108C): binds
binding result (Tt-RuvC E70Q P40C [5]): binds

B11: HJ-29bb-h (structured_DNA)
DNA 1: GACGGCCTCGCAATCAGCTATGACCGAGCACGCGAGATGT
DNA 2: ACATCTCGCGTGCTCGGTCATTCTGCAGATGCGGAGTGAA
DNA 3: TTCACTCCGCATCTGACGATTCTGGCTGTGGCGTGTTTCT
DNA 4: AGAAACACGCCACAGCCAGAAAGCTGATTGCGAGGCCGTC
modifications: thiol tether on phosphate after nt 25 of strand 4 only; the table lists one shared single B strand (S19) for HJ-28/29
binding result (Tt-RuvC E70Q T11C [6]): binds
